Laboratory results taken from patent EP4772536A1 (Teijin Pharma Limited, dated 2026).

Experiments:
[1] = molecular target: T1, recombinant human soluble gpNMB (human gpNMB-FLAG-His) (human, UniProt Q14956 23-498); experiment: SPR single-cycle kinetics, gpNMB-FLAG-His captured, 1:1 model
T1 construct: FLAG and His tags; also called recombinant human gpNMB-FLAG-His
T1 sequence: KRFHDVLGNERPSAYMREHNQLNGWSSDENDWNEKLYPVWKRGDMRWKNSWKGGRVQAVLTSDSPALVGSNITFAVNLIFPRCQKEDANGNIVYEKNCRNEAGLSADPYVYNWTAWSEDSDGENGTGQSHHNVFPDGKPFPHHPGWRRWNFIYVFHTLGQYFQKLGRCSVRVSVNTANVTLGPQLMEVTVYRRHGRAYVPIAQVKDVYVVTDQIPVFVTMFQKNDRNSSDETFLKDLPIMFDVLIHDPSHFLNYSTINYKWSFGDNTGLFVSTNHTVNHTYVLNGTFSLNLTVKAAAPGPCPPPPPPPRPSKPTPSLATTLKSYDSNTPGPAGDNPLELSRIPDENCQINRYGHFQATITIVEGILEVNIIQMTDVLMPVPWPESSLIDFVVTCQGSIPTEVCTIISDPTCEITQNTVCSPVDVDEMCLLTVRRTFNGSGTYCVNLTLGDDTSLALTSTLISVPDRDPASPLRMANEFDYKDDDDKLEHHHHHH

[2] = molecular target: T2, recombinant mouse soluble gpNMB (mouse gpNMB-FLAG-His) (mouse, UniProt Q99P91 23-502); experiment: as above
T2 construct: FLAG and His tags; also called recombinant mouse gpNMB-FLAG-His
T2 sequence: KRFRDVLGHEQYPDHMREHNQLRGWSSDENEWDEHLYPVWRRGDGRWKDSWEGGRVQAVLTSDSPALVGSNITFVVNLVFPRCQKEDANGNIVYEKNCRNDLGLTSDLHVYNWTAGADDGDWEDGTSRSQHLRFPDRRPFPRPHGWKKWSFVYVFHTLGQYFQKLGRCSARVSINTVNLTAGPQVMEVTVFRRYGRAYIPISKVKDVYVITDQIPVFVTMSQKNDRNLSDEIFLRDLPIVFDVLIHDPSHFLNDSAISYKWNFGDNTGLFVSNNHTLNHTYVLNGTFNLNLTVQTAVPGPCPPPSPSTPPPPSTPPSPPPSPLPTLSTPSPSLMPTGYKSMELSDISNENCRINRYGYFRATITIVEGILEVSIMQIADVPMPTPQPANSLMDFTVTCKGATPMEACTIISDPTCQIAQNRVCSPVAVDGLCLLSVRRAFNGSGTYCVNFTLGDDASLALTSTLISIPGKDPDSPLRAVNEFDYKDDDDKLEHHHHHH

B1: GPN05-1 (antibody, V domains shown)
VH: QVQLQQSGAELVRPGTSVKVSCKASGYAFSNHLIEWVKQRPGQGLEWIGVINPGSGGTNYIEKFKGKATLTADKSSSTAYMQLSSLTSDDSAVYFCARGANWDVGFAYWGQGTLVTVSA
VL: EIQMTQSPSSMSASLGDRITITCQATQDIVKNLNWYQQKPGKPPSFLIYYATELAEGVPSRFSGSGSGSDFSLTISNLESEDFADYYCLQFHEFPRTFGGGTKLEIK
notes: anti-gpNMB monoclonal antibody
[1]
  Kd: 0.366 nM
  koff: 3.55e-05 s⁻¹
  kon: 96900 M⁻¹ s⁻¹
[2]
  Kd: 8.5 nM
  koff: 0.000307 s⁻¹
  kon: 36100 M⁻¹ s⁻¹

B2: GPN06-1 (antibody, V domains shown)
VH: QVQLQQPGAEIVRPGASVKLSCKASGYTFTDNWMGWVKQRPGQGLEWIGAIDPSDSFTNYNQNFKGKATLTVDTSSSTAYMQLSSLTSEDSAVYFCTRSGYYGSPKLGGDYWGQGTTLTVSS
VL: QIVLTQSPAIMSASLGEEITLTCSASSSISYMHWYQQKSGTSPKLLIYSTSNLASGVPSRFSGSGSGTFYSLTISSVEAEDAADYYCHQWNSYPCTFGGGTKLEIK
notes: as for B1
[1]
  Kd: 0.488 nM
  koff: 0.000253 s⁻¹
  kon: 519000 M⁻¹ s⁻¹
[2]
  Kd: 5.05 nM
  koff: 0.000879 s⁻¹
  kon: 174000 M⁻¹ s⁻¹
